How the values were obtained:
Details in all cases: remark: other sources report otherwise
[1] = molecular target: T1, N-terminally SNAP-tagged human dopamine D2L receptor (human), P14416; assay: single-molecule TIRF microscopy (intensity distribution of fluorescent spots); receptors on living CHO cells labelled 1 h at 37 °C with a fluorescent (Cy3B) antagonist (1c, 4a or 4b) at 10-fold Ki; spots fitted with a mixed Gaussian model
T1 chain: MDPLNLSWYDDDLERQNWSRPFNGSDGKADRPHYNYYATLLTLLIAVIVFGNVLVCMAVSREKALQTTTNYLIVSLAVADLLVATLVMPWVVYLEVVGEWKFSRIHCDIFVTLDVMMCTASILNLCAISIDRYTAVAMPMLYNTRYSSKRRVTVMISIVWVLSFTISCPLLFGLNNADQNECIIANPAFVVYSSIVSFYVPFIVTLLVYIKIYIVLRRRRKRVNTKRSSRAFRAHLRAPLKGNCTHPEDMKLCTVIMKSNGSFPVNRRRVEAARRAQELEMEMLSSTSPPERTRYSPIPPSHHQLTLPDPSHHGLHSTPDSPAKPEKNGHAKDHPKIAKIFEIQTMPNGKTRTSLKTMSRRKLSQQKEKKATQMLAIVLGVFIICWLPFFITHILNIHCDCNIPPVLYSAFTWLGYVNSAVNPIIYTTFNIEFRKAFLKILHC

[2] = molecular target: T1, N-terminally SNAP-tagged human dopamine …; assay: single-molecule TIRF microscopy (intensity distribution of fluorescent spots); living stably transfected CHO cells, SNAP-tag labelled with 1 uM Alexa546-BG, ligand-free; spots of the first 10 frames fitted with a mixed Gaussian model; room temperature (24.0 ± 0.3 °C), imaging buffer pH 7.4; SNAP-D2L at 0.67 ± 0.03 spots um^-2
[3] = molecular target: T1, N-terminally SNAP-tagged human dopamine …; assay: single-molecule TIRF microscopy (intensity distribution of fluorescent spots); Alexa546-BG-labelled SNAP-D2L on living CHO cells, incubated 1 h with the bivalent antagonists 2a or 2b at 10-fold Ki
[4] = molecular target: T1, N-terminally SNAP-tagged human dopamine …; assay: single-molecule TIRF microscopy (apparent lifetime of particle colocalization); Alexa546-labelled SNAP constructs on living CHO cells, ligand-free; time from the beginning of tracking to a one-step intensity change, 120 trajectories, one-phase exponential decay; apparent
[5] = molecular target: T1, N-terminally SNAP-tagged human dopamine …; assay: single-molecule TIRF microscopy (apparent lifetime of particle colocalization); Alexa546-labelled SNAP-D2L on living CHO cells with the bivalent ligand 2a; 120 trajectories, one-phase exponential decay; apparent
[6] = molecular target: T1, N-terminally SNAP-tagged human dopamine …; assay: single-molecule TIRF microscopy (intensity distribution of fluorescent spots); Alexa546-BG-labelled SNAP-D2L on living CHO cells, incubated 1 h with the unsymmetrical control ligands 3a or 3b (one pharmacophore, one non-binding motif) at 10-fold Ki
[7] = molecular target: T1, N-terminally SNAP-tagged human dopamine …; assay: single-molecule TIRF microscopy (lifetime of transient dimers from intensity trajectories); Alexa546-labelled SNAP-D2L on living CHO cells, ligand-free; 120 dimers whose trajectories show intensity doubling and return; one-phase exponential fit
[8] = molecular target: T1, N-terminally SNAP-tagged human dopamine …; assay: single-molecule TIRF microscopy (apparent lifetime of particle colocalization); Alexa546-labelled SNAP-D2L on living CHO cells with the monovalent ligand 1a; 120 trajectories, one-phase exponential decay; apparent

- percent of fluorescent spots that are dimers, labelled with antagonist 1c [1]: 26%
- percent of fluorescent spots that are monomers, labelled with antagonist 1c [1]: 74%
- percent of fluorescent spots that are dimers [2]: 30%
- percent of fluorescent spots that are monomers [2]: 70%
- stoichiometry N [2]: 2
- percent of fluorescent spots that are dimers, with bivalent antagonist 2a [3]: 66%
- percent of fluorescent spots that are dimers, with bivalent antagonist 2b [3]: 58%
- apparent colocalization lifetime (tau) [4]: 0.46 s
- apparent colocalization lifetime (tau), with bivalent ligand 2a [5]: 1.16 s
- percent of fluorescent spots that are dimers, with control ligand 3a [6]: 33%
- percent of fluorescent spots that are dimers, with control ligand 3b [6]: 34%
- percent of fluorescent spots that are monomers, with control ligand 3a [6]: 67%
- percent of fluorescent spots that are monomers, with control ligand 3b [6]: 66%
- half-life (t1/2) of the transient dimer [7]: 0.35 s
- lifetime of the transient dimer [7]: 0.5 s
- apparent colocalization lifetime (tau), with monovalent ligand 1a [8]: 0.42 s
B1: N-terminally SNAP-tagged human dopamine D2L receptor, P14416 1-443 (receptor)
chain: MDPLNLSWYDDDLERQNWSRPFNGSDGKADRPHYNYYATLLTLLIAVIVFGNVLVCMAVSREKALQTTTNYLIVSLAVADLLVATLVMPWVVYLEVVGEWKFSRIHCDIFVTLDVMMCTASILNLCAISIDRYTAVAMPMLYNTRYSSKRRVTVMISIVWVLSFTISCPLLFGLNNADQNECIIANPAFVVYSSIVSFYVPFIVTLLVYIKIYIVLRRRRKRVNTKRSSRAFRAHLRAPLKGNCTHPEDMKLCTVIMKSNGSFPVNRRRVEAARRAQELEMEMLSSTSPPERTRYSPIPPSHHQLTLPDPSHHGLHSTPDSPAKPEKNGHAKDHPKIAKIFEIQTMPNGKTRTSLKTMSRRKLSQQKEKKATQMLAIVLGVFIICWLPFFITHILNIHCDCNIPPVLYSAFTWLGYVNSAVNPIIYTTFNIEFRKAFLKILHC
modifications: here or on the partner: Alexa546 covalently on the SNAP-tag through benzylguanine (Alexa546-BG) in the SNAP-labelling experiments; Alexa546 covalently on the SNAP-tag through benzylguanine (Alexa546-BG) in the SNAP-labelling experiments

Source: article PMC5018964, “Visualization and ligand-induced modulation of dopamine receptor dimerization at the single molecule level” (Scientific Reports, 2016)
